In patent publication US10800813 (Bicycle, dated 2020):
Numbered stars: 1 amine (or outer) side, 2 acyl side, 3 side chain; on linkers, the order of the positions; unused ones are H or OH. Bridge positions count the residues as written; N and C are the ends. Square brackets hold non-standard residues; d marks the D form. Phe(4-guanidino) = N=C(N)Nc1ccc(C[C@H](N)C(=O)O)cc1; TBMB = c1c(C[*:1])cc(C[*:3])cc1C[*:2]; NMeR = CN[C@@H](CCCNC(=N)N)C(=O)O; hArg = N=C(N)NCCCC[C@H](N)C(=O)O; Pen = CC(C)(S)[C@H](N)C(=O)O; Dpg = CCCC(N)(CCC)C(=O)O; Aze = O=C(O)[C@@H]1CCN1; Abu = CC[C@H](N)C(=O)O; Aib = CC(C)(N)C(=O)O; βAla = NCCC(=O)O

B1: Ac-(06-34-18) FPAR (peptide)
peptide: Ac-CSFPARCLHQDLC-NH2
modifications: linker 1-7-13 via TBMB
SMILES: CC(=O)N[C@H]1CSCc2cc3cc(c2)CSC[C@H](NC(=O)[C@H](CCCNC(=N)N)NC(=O)[C@H](C)NC(=O)[C@@H]2CCCN2C(=O)[C@H](Cc2ccccc2)NC(=O)[C@H](CO)NC1=O)C(=O)N[C@@H](CC(C)C)C(=O)N[C@@H](Cc1c[nH]cn1)C(=O)N[C@@H](CCC(N)=O)C(=O)N[C@@H](CC(=O)O)C(=O)N[C@@H](CC(C)C)C(=O)N[C@H](C(N)=O)CSC3
B2: Ac-(06-34-18) Aba4 (peptide)
peptide: Ac-CSWP[Abu]RCLHQDLC-NH2
modifications: linker 1-7-13 via TBMB
SMILES: CC[C@@H]1NC(=O)[C@@H]2CCCN2C(=O)[C@H](Cc2c[nH]c3ccccc23)NC(=O)[C@H](CO)NC(=O)[C@@H](NC(C)=O)CSCc2cc3cc(c2)CSC[C@H](NC(=O)[C@H](CCCNC(=N)N)NC1=O)C(=O)N[C@@H](CC(C)C)C(=O)N[C@@H](Cc1c[nH]cn1)C(=O)N[C@@H](CCC(N)=O)C(=O)N[C@@H](CC(=O)O)C(=O)N[C@@H](CC(C)C)C(=O)N[C@H](C(N)=O)CSC3
B3: Ac-(06-34-18) Cys2ToPen2 (peptide)
peptide: Ac-CSWPAR[Pen]LHQDLC-NH2
modifications: linker 1-7-13 via TBMB
SMILES: CC(=O)N[C@H]1CSCc2cc3cc(c2)CSC(C)(C)[C@H](NC(=O)[C@H](CCCNC(=N)N)NC(=O)[C@H](C)NC(=O)[C@@H]2CCCN2C(=O)[C@H](Cc2c[nH]c4ccccc24)NC(=O)[C@H](CO)NC1=O)C(=O)N[C@@H](CC(C)C)C(=O)N[C@@H](Cc1c[nH]cn1)C(=O)N[C@@H](CCC(N)=O)C(=O)N[C@@H](CC(=O)O)C(=O)N[C@@H](CC(C)C)C(=O)N[C@H](C(N)=O)CSC3
B4: Ac-(06-34-18) Dpg1 (peptide)
peptide: Ac-C[Dpg]WPARCLHQDLC-NH2
modifications: linker 1-7-13 via TBMB
SMILES: CCCC1(CCC)NC(=O)[C@@H](NC(C)=O)CSCc2cc3cc(c2)CSC[C@H](NC(=O)[C@H](CCCNC(=N)N)NC(=O)[C@H](C)NC(=O)[C@@H]2CCCN2C(=O)[C@H](Cc2c[nH]c4ccccc24)NC1=O)C(=O)N[C@@H](CC(C)C)C(=O)N[C@@H](Cc1c[nH]cn1)C(=O)N[C@@H](CCC(N)=O)C(=O)N[C@@H](CC(=O)O)C(=O)N[C@@H](CC(C)C)C(=O)N[C@H](C(N)=O)CSC3
B5: Ac-(06-34-18) β-Ala4 (peptide)
peptide: Ac-CSWP[βAla]RCLHQDLC-NH2
modifications: linker 1-7-13 via TBMB
SMILES: CC(=O)N[C@H]1CSCc2cc3cc(c2)CSC[C@H](NC(=O)[C@H](CCCNC(=N)N)NC(=O)CCNC(=O)[C@@H]2CCCN2C(=O)[C@H](Cc2c[nH]c4ccccc24)NC(=O)[C@H](CO)NC1=O)C(=O)N[C@@H](CC(C)C)C(=O)N[C@@H](Cc1c[nH]cn1)C(=O)N[C@@H](CCC(N)=O)C(=O)N[C@@H](CC(=O)O)C(=O)N[C@@H](CC(C)C)C(=O)N[C@H](C(N)=O)CSC3
B6: Ac-(06-34-18) Aib4 (peptide)
peptide: Ac-CSWP[Aib]RCLHQDLC-NH2
modifications: linker 1-7-13 via TBMB
SMILES: CC(=O)N[C@H]1CSCc2cc3cc(c2)CSC[C@H](NC(=O)[C@H](CCCNC(=N)N)NC(=O)C(C)(C)NC(=O)[C@@H]2CCCN2C(=O)[C@H](Cc2c[nH]c4ccccc24)NC(=O)[C@H](CO)NC1=O)C(=O)N[C@@H](CC(C)C)C(=O)N[C@@H](Cc1c[nH]cn1)C(=O)N[C@@H](CCC(N)=O)C(=O)N[C@@H](CC(=O)O)C(=O)N[C@@H](CC(C)C)C(=O)N[C@H](C(N)=O)CSC3
B7: Ac-(06-34-18) Aze3 HomoArg5 (peptide)
peptide: Ac-CSW[Aze]A[hArg]CLHQDLC-NH2
modifications: linker 1-7-13 via TBMB
SMILES: CC(=O)N[C@H]1CSCc2cc3cc(c2)CSC[C@H](NC(=O)[C@H](CCCCNC(=N)N)NC(=O)[C@H](C)NC(=O)[C@@H]2CCN2C(=O)[C@H](Cc2c[nH]c4ccccc24)NC(=O)[C@H](CO)NC1=O)C(=O)N[C@@H](CC(C)C)C(=O)N[C@@H](Cc1c[nH]cn1)C(=O)N[C@@H](CCC(N)=O)C(=O)N[C@@H](CC(=O)O)C(=O)N[C@@H](CC(C)C)C(=O)N[C@H](C(N)=O)CSC3
B8: Ac-(06-34-18) Aze3 NMeArg5 (peptide)
peptide: Ac-CSW[Aze]A[NMeR]CLHQDLC-NH2
modifications: linker 1-7-13 via TBMB
SMILES: CC(=O)N[C@H]1CSCc2cc3cc(c2)CSC[C@H](NC(=O)[C@H](CCCNC(=N)N)N(C)C(=O)[C@H](C)NC(=O)[C@@H]2CCN2C(=O)[C@H](Cc2c[nH]c4ccccc24)NC(=O)[C@H](CO)NC1=O)C(=O)N[C@@H](CC(C)C)C(=O)N[C@@H](Cc1c[nH]cn1)C(=O)N[C@@H](CCC(N)=O)C(=O)N[C@@H](CC(=O)O)C(=O)N[C@@H](CC(C)C)C(=O)N[C@H](C(N)=O)CSC3
B9: Ac-(06-34-18) Aze3 4GuanPhe5 (peptide)
peptide: Ac-CSW[Aze]A[Phe(4-guanidino)]CLHQDLC-NH2
modifications: linker 1-7-13 via TBMB
SMILES: CC(=O)N[C@H]1CSCc2cc3cc(c2)CSC[C@H](NC(=O)[C@H](Cc2ccc(NC(=N)N)cc2)NC(=O)[C@H](C)NC(=O)[C@@H]2CCN2C(=O)[C@H](Cc2c[nH]c4ccccc24)NC(=O)[C@H](CO)NC1=O)C(=O)N[C@@H](CC(C)C)C(=O)N[C@@H](Cc1c[nH]cn1)C(=O)N[C@@H](CCC(N)=O)C(=O)N[C@@H](CC(=O)O)C(=O)N[C@@H](CC(C)C)C(=O)N[C@H](C(N)=O)CSC3
B10: Ac-(06-34-18) WPSR (peptide)
peptide: Ac-CSWPSRCLHQDLC-NH2
modifications: linker 1-7-13 via TBMB
SMILES: CC(=O)N[C@H]1CSCc2cc3cc(c2)CSC[C@H](NC(=O)[C@H](CCCNC(=N)N)NC(=O)[C@H](CO)NC(=O)[C@@H]2CCCN2C(=O)[C@H](Cc2c[nH]c4ccccc24)NC(=O)[C@H](CO)NC1=O)C(=O)N[C@@H](CC(C)C)C(=O)N[C@@H](Cc1c[nH]cn1)C(=O)N[C@@H](CCC(N)=O)C(=O)N[C@@H](CC(=O)O)C(=O)N[C@@H](CC(C)C)C(=O)N[C@H](C(N)=O)CSC3
B11: Ac-(06-34-18) WPYR (peptide)
peptide: Ac-CSWPYRCLHQDLC-NH2
modifications: linker 1-7-13 via TBMB
SMILES: CC(=O)N[C@H]1CSCc2cc3cc(c2)CSC[C@H](NC(=O)[C@H](CCCNC(=N)N)NC(=O)[C@H](Cc2ccc(O)cc2)NC(=O)[C@@H]2CCCN2C(=O)[C@H](Cc2c[nH]c4ccccc24)NC(=O)[C@H](CO)NC1=O)C(=O)N[C@@H](CC(C)C)C(=O)N[C@@H](Cc1c[nH]cn1)C(=O)N[C@@H](CCC(N)=O)C(=O)N[C@@H](CC(=O)O)C(=O)N[C@@H](CC(C)C)C(=O)N[C@H](C(N)=O)CSC3

Target: T1, human plasma Kallikrein (human, UniProt P03952 20-638, limits assumed)
T1 construct: also called hPK; human PK
Experiment: enzyme inhibition assay

T1 sequence (P03952 20-638 limits assumed): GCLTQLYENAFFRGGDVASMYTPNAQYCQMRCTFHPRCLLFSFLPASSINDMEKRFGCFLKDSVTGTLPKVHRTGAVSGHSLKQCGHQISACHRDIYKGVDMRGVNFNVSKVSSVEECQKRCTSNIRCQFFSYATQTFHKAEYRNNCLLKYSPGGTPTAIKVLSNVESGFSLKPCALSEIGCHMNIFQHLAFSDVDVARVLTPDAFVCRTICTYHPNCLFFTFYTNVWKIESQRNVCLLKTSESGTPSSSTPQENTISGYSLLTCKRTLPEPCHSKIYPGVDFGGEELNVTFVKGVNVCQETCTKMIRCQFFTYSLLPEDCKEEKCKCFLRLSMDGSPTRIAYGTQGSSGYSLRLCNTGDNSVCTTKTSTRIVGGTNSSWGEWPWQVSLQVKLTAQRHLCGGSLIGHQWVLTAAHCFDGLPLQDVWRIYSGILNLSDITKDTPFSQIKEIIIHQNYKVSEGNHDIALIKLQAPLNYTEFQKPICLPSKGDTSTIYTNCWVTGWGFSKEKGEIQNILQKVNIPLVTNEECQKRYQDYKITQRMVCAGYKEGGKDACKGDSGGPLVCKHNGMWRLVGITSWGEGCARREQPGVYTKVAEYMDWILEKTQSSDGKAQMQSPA

B1 was tested, and the “fold change in Ki against WPAR parent” value was 40 fold.

Target: T1, human plasma Kallikrein
Experiment: enzyme inhibition assay
Remark: another data set of the same source

Going from B2 to B3, the Ki rises from 0.07 nM to 2160 nM (31000-fold).

First: B4
Second: B5
The Ki of the first is 16000-fold lower: 1.09 nM for the first, 17400 nM for the second.

Work on B6 yielded a Ki of 289 nM.

Target: T1, human plasma Kallikrein
Experiment: enzyme inhibition assay
Remark: another data set of the same source

First: B7
Second: B8
The Ki of the first is 9.3-fold lower: 0.14 nM for the first, 1.3 nM for the second. The first binds more tightly here.

B9 was tested, and the Ki was 0.17 nM.

Target: T1, human plasma Kallikrein
Experiment: enzyme inhibition assay
Remark: another data set of the same source

Compared with B1, B10 is 14-fold lower in Ki: 6.28 nM for the first, 0.44 nM for the second. The second binds more tightly here.

In the case of B11, the Ki is reported as 0.41 nM.
